Entries after “also recorded” stand apart in the source; their conditions may differ. Read-outs that look alike come from different tables or passages of the source.
What was measured:
[1] = target: T1, Yarrowia lipolytica PO1f diamine oxidase-1 (DAO-1), wild type, SEQ ID NO: 1 (Yarrowia lipolytica, UniProt Q6CGT2); assay: Michaelis-Menten kinetics of DAO-1 with histamine, DA-67 assay in PIPES buffer; assay type: biochemical; details: PIPES buffer (25 mM; pH 7.2), 37° C.
T1 sequence (Q6CGT2 1-671): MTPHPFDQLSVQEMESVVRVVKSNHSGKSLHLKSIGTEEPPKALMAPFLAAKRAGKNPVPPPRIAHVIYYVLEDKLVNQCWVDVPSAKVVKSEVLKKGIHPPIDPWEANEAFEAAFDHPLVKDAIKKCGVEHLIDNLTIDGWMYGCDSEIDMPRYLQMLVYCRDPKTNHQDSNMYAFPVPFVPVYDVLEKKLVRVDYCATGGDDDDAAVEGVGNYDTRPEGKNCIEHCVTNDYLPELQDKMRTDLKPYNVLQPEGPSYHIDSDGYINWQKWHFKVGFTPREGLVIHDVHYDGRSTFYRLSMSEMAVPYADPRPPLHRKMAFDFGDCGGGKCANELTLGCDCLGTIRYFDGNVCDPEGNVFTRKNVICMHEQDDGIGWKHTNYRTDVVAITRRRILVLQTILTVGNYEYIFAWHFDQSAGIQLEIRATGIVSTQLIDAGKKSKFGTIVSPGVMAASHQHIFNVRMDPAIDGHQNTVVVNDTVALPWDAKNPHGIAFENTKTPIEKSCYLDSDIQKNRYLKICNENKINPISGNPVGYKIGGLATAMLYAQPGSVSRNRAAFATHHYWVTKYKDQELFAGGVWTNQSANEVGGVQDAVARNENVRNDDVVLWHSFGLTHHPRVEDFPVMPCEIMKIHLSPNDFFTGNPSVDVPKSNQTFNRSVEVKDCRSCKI
Procedure: DAO-1 activity determined with the DA-67 assay in PIPES buffer (25 mM; pH 7.2) at 37° C.
The DAO activity was determined using the colorimetric DA-67 enzyme assay, as known in the art. […] Subsequently, 24 μL (266 units/mL) of horseradish peroxidase (Grade I) were added. The reaction was started by the addition of 50 μL enzyme solution and incubated at 37° C. for 10 min and stirred at 750 rpm. The reaction was stopped by the addition of 50 μL sodium diethyldithiocarbamate (30 mM). After centrifugation (10,000 g for 3 min at 20° C.), the absorption was measured at 668 nm. […] Hydrogen peroxide (0.5 to 10 nmol/mL) was used for the calibration. The enzyme activity was calculated in nkat, whereby 1 nkat converts 1 nmol substrate/s at 37° C.
Kinetic investigations were done within the initial reaction velocity.
Data are presented as mean values with standard deviation. Enzyme kinetics were evaluated by nonlinear regression using the data analyzing software Sigmaplot 12.5 (Systat Software GmbH, Erkrath, Germany).

[2] = target: T1, Yarrowia lipolytica PO1f diamine oxidase-1 (DAO-1), wild type, SEQ ID NO: 1
Procedure: DAO-1 activity was determined with the DA-67 assay.
The DAO-1 activity was determined using a colorimetric DA-67 enzyme assay. […] Subsequently, 12 μL (266 units/mL) of horseradish peroxidase (Grade I) were added. The reaction was started by the addition of 25 μL DAO solution and incubated at 37° C. for 10 min and stirred at 750 rpm. The reaction was stopped by the addition of 50 μL sodium diethyldithiocarbamate (30 mM). After centrifugation (10,000 g for 3 min at 20° C.), the absorption was measured at 668 nm. […] Hydrogen peroxide (0.5 to 10 nmol/mL) was used for the calibration. The enzyme activity was calculated in nkat, whereby 1 nkat converts 1 nmol substrate/s at 37° C.
The DAO-1 activity was determined using the DA-67 assay. For unhydrolyzed conditions, the DA-67 reagent (50 μM) was prepared in SIF containing BSA, WPI, sodium-caseinate each at 35.6 g/L and 106.8 g/L sucrose (pH 6.8). […] The DAO-1 was desalted against SIF using PD MidiTrap G-25 columns.
For the hydrolyzed conditions, BSA, WPI, sodium-caseinate each at 16.67 g/L and 50 g/L sucrose were first incubated in SIF (with pancreatin) at 37° C. and 130 rpm for 90 min. […]
All experiments were done at least in duplicate and evaluated by determining the standard deviation with Excel. […] Enzyme kinetics were evaluated by nonlinear regression using the data analyzing software Sigmaplot 12.5 (Systat Software GmbH, Erkrath, Germany).

[3] = tested on: porcine kidney diamine oxidase (DAO); details: cited from earlier work
[4] = tested on: human diamine oxidase (DAO); details: cited from earlier work
[5] = tested on: Arthrobacter crystallopoietes KAIT-B-007 histamine oxidase; details: cited from earlier work
[6] = tested on: Aspergillus niger amine oxidase; details: cited from earlier work
[7] = kinetic studies from the art; cited from earlier work
[8] = cited from earlier work; for in vitro reduction of histamine: 150 mg/L (75 mg) histamine, 50 nkat (0.1 nkat/mL), 5 h
[9] = simulated intestinal fluid; cited from earlier work
[10] = extracted and partially purified from pig kidney (heat treatment, salt precipitation, HIC), cited from earlier work
[11] = cited from earlier work
[12] = substrates at 1 mM; cited from earlier work
[13] = DAO activity of Y. lipolytica PO1f_axp_dao-2 cell extract versus wildtype extract; assay type: biochemical
Procedure: (§1) The DAO activity was determined using the colorimetric DA-67 enzyme assay, as known in the art.
(§2) Y. lipolytica PO1f was identified as the owner of two putative DAOs using the BLAST program (https://blast.ncbi.nlm.nih.gov). […] Both genes were amplified from the genome of the Y. lipolytica strain PO1f and successfully integrated into the axp locus of the genome (integration efficiency of around 20%), resulting in the recombinant strains Y. lipolytica PO1f_axp_dao-1 and Y. lipolytica PO1f_axp_dao-2. The genes were integrated into the axp locus because it allowed efficient expression of the proteins desired with the chosen strategy for homologous recombinant integration, as known in the art. Gene expression was thereby conducted using the strong, constitutive promoter UAS1B8_TEF (136).

[14] = DAO activity of Y. lipolytica PO1f_axp_dao-2 cell extract versus wildtype extract, agmatine; assay type: biochemical
Procedure: as §1, §2

[15] = read-out: Ki (substrate inhibition by histamine)

Q: Which “substrate inhibition recognized for histamine concentrations” value (“substrate inhibition recognized” below) [1] does the source give for `NCCc1c[nH]cn1` [histamine] here?
A: Its value is “greater than 12.5 mM”.

Q: What about the “substrate inhibition recognized” value ([2]; hydrolyzed food-matrix SIF 3) of the same molecule?
A: The value was “greater than 12.5 mM”.

Q: What about the “substrate inhibition recognized” value ([2]; unhydrolyzed food-matrix SIF 3) of the same molecule?
A: Its value is “greater than 12.5 mM”.

Q: And the Km [3]?
A: The Km was 27 µM.

Q: What about the “substrate inhibition by histamine concentrations” value ([3]; porcine kidney DAO, 56 mg/L (0.5 mM)) of the same molecule?
A: The value was > 0.5 mM.

Q: And the Ki [3, 15]?
A: Its Ki is 5710 µM.

Q: And the Km [4]?
A: The Km was 2.8 µM.

Q: What about the Ki [4, 15] of the same molecule?
A: The Ki was 280 µM.

Q: And the Km [5]?
A: Its Km is 500 µM.

Q: What about the Km [6] of the same molecule?
A: The Km was 600 µM.

B1: porcine DAO: DAO extracted from porcine kidney (Uniprot: Q9TRC7), prior-art comparator (protein, UniProt Q9TRC7 25-755, looked up)
Diamine oxidase …: ERSPRTPGGKAGVFADLSAQELKAVHSFLWSQKELKLEPSGTLTMAKNSVFLIEMLLPKKQHVLKFLDKGHRRPVREARAVIFFGAQEQPNVTEFAVGPLPTPRYMRDLPPRPGHQVSWASRPISKAEYALLSHKLQEATQPLRQFFRRTTGSSFGDCHEQCLTFTDVAPRGLASGQRRTWFILQRQMPGYFLHPTGLELLVDHGSTNAQDWTVEQVWYNGKFYRSPEELAQKYNDGEVDVVILEDPLAKGKDGESLPEPALFSFYQPRGDFAVTMHGPHVVQPQGPRYSLEGNRVMYGGWSFAFRLRSSSGLQILDVHFGGERIAYEVSVQEAVALYGGHTPAGMQTKYIDVGWGLGSVTHELAPDIDCPETATFLDALHHYDADGPVLYPRALCLFEMPTGVPLRRHFNSNFSGGFNFYAGLKGQVLVLRTTSTVYNYDYIWDFIFYPNGVMEAKMHATGYVHATFYTPEGLRYGTRLHTHLIGNMHTHLVNYRVDLDVAGTTNSFQTLQMELENITNPWSPRHRLVQPTLKQTRYSRERQAAFRFGQPLPKYLLITSPKENPWGHTRSYRLQLHSMADQVLPPGWQEERAVTWARYPLAVTRYRESELSSSSIYNQNDPWDPPVVFEEFLRNNENIEDEDLVAWVTVGFLHIPHSEDIPNTATPGNSVGFLLRPFNFFPEDPALASRDLVVVWPLENGSTYAQRWIPEEDQSCLKPPPFSYNGSYRPV
Q: Which results are given for B1?
A: histamine concentration above which substrate inhibition occurs [7]: greater than 56 mg/L; in vitro reduction of histamine [8]: Around 90%; in vitro reduction of histamine ([8]; listed as free porcine DAO): about 90%; DAO activity required for the degradation of food-relevant histamine (75 mg) ([8]; within 5 h under in vitro conditions, about 90% reduction): 50 nkat; half-life [9]: approximately 19 minutes; specific DAO activity [10]: 81 nkat/gProtein; specific DAO activity ([10]; listed as DAO from porcine kidney): 81±1 nkat/gProtein; pH of maximal DAO activity ([11]; cadaverine as substrate, potassium phosphate buffer): 7.4; pH of maximal DAO activity ([11]; histamine as substrate, potassium phosphate buffer): 6.3; DAO activity with histamine compared to the maximal measured activity with putrescine [12]: 19%

B2: DAO-2: second putative DAO from Y. lipolytica PO1f (Uniprot: A0A371BXN9), gene dao-2 SEQ ID NO: 3 (protein, listed as Yarrowia lipolytica)
chain: MHRLSQLATQTTAATITAGHPLDPLSPSEIEHAASIVKSQMRDSSPYRFNLITLIEPPKAELLAWEASPSSVAKPPRRAEVVLVVRGKKGVTEGRVCLTGSKVLSWSEIEGVQPILTVDDLQKVEEIVRQDPEVIKQCKLIGVDNMSQVYCDPWTIGYDERWGAERRLQQAFLYFRAHQDDSQYSHPLDFTPIYDATEQKVIFIDIPPVRRPLSKLKNSNFNPQDISKTTGYRDVKPIDVSQPEGVNFKMTGRIMEWQGFRFHVGFNYREGIVLSQISFNDHGNQRNMFHRLSLVEMVVPYGNPEHPHQRKHAFDLGEYGAGLMTNPLSLGCDCKGVIHYLDAHFSDAEGKPLTVPNAVCIHEEDNGLLFKHSDFRDEFQTSIVTRATKLILSQIFTAANYEYCVYWIFHQDGTIQLEIKLTGILNTFPCNPGEDLHGWGTEVYPGTNAHNHQHLFSLRIHPAIDSQLHPGNSVAMVDAERSPFPPGHPENLHGNGFRPKRTVFNNPIEAMTDYDGNTSRTWDFFNPKSINQYSKKPASYKLVSRECPPLLPQPGGLVWNRAGFARHHMHVVPYVDGQLYPAGRFVCQTSGKPSRGLPEWIEQCGEKANINDTDVVAYHTFGLTHFPAPEDFPLMPAEPMTLLLRPRNFFLQNPALDVPPSHARTTTEAQAASGAKVVSLTDKVSQLAFNKSCCSK
Q: Which “enzyme activity towards histamine” value ([13]; recombinant Y. lipolytica PO1f_axp_dao-2 extract) does the source give for B2 here?
A: Its value is “no activity; also recorded: did not show enzyme activity”.

Q: And the “increase in DAO-activity versus wildtype cell extract” value ([13]; substrates histamine, putrescine, cadaverine, tyramine, spermidine, tryptamine)?
A: The value was “did not show an increase”.

Q: What about the activity with agmatine ([14]; cell extract, shaking flask) of the same molecule?
A: Its activity with agmatine is “around 50 nkatAgmatine (14.5 mM)/LCulture”.

Q: And the “increase in activity versus wildtype cell extract” value ([14]; substrate agmatine)?
A: Its value is 5.5 fold.

B3: human DAO: human diamine oxidase (Uniprot: P19801), prior-art comparator (protein, UniProt P19801 20-751, looked up)
Diamine oxidase …: EPSPGTLPRKAGVFSDLSNQELKAVHSFLWSKKELRLQPSSTTTMAKNTVFLIEMLLPKKYHVLRFLDKGERHPVREARAVIFFGDQEHPNVTEFAVGPLPGPCYMRALSPRPGYQSSWASRPISTAEYALLYHTLQEATKPLHQFFLNTTGFSFQDCHDRCLAFTDVAPRGVASGQRRSWLIIQRYVEGYFLHPTGLELLVDHGSTDAGHWAVEQVWYNGKFYGSPEELARKYADGEVDVVVLEDPLPGGKGHDSTEEPPLFSSHKPRGDFPSPIHVSGPRLVQPHGPRFRLEGNAVLYGGWSFAFRLRSSSGLQVLNVHFGGERIAYEVSVQEAVALYGGHTPAGMQTKYLDVGWGLGSVTHELAPGIDCPETATFLDTFHYYDADDPVHYPRALCLFEMPTGVPLRRHFNSNFKGGFNFYAGLKGQVLVLRTTSTVYNYDYIWDFIFYPNGVMEAKMHATGYVHATFYTPEGLRHGTRLHTHLIGNIHTHLVHYRVDLDVAGTKNSFQTLQMKLENITNPWSPRHRVVQPTLEQTQYSWERQAAFRFKRKLPKYLLFTSPQENPWGHKRTYRLQIHSMADQVLPPGWQEEQAITWARYPLAVTKYRESELCSSSIYHQNDPWHPPVVFEQFLHNNENIENEDLVAWVTVGFLHIPHSEDIPNTATPGNSVGFLLRPFNFFPEDPSLASRDTVIVWPRDNGPNYVQRWIPEDRDCSMPPPFSYNGTYRPV
Q: Which “pH of maximal DAO activity” value ([11]; putrescine as substrate, phosphate buffer, DAO from blood serum) does the source give for B3 here?
A: Its value is 7.5.
